In this test the target is VASP-EVH1 (human VASP aa1-115, GST cleaved with thrombin) (human, UniProt P50552 1-115). In words: ITC. Background: Isothermal titration calorimetry measures the heat released or taken up as one component is titrated into another.
Chain of VASP-EVH1 (human VASP aa1-115, GST cleaved with thrombin) (P50552 1-115): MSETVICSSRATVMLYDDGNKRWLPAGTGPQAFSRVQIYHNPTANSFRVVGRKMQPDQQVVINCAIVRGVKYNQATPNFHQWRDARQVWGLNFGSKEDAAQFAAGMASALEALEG

The Kd is a measure of binding affinity in units of concentration. Lower therefore signals higher affinity. Ac-SEDNLPPPPAEFSYP-NH2 [15-mer WAVE2-derived peptide Ac-SEDNLPPPPAEFSYP-NH2] had a Kd of 250 µM.

Values taken from article PMC12232546 (Proceedings of the National Academy of Sciences of the …, 2025).
